The values below come from patent publication US20130317087A1 (UNIVERSITY OF ROCHESTER, published 2013).

Series [1] deals with the molecule itself. Kind of series: gel filtration of the E. coli-made protein. On the procedure:
Since hSTAU1^{55(R)}Δ(SSM-‘RBD’5)-FLAG still had residual dimerization activity (10% that of hSTAU1^{55(R)}-FLAG), and in view of reports that hSTAU1 ‘RBD’2 amino acids 37-79 can interact with full-length hSTAU1, the ability of E. coli-produced ‘RBD’2-RBD3 amino acids 43-173 to dimerize was assayed.
Size standards were prepared by dissolving dried proteins in 2 ml of GF buffer containing 2.97 mM DTT. Proteins consisted of 3.8 mg of conalbumin (75 kDa), 2.3 mg carbonic anhydrase (29 kDa) and 6.7 mg aprotinin(6.5 kDa), each from the Low Molecular Weight Gel Filtration Calibration Kit (GE Healthcare; #28-4038-41), and 6 mg of lysozyme (14.3 kDa) (Sigma; #L6876-10G). The dissolved solution (1 ml, determined using a 1 ml loop) was loaded onto a 120 ml HiLoad™Superdex™ 200 16/60 prep-grade column (GE Healthcare) and separated at a 1 ml/min flow rate using the BioLogicDuoFlow™ FPLC system. For size estimations, gel-filtration of SSM-‘RBD’5 (WT), SSM-‘RBD’5 (E424H, D427V) and ‘RBD’2-RBD3 was performed as described for the size standards. SSM-‘RBD’5 (WT) was loaded at 8 mg/ml, SSM-‘RBD’5 (E424H, D427V) was loaded, and ‘RBD’2-RBD3 was loaded at 6 mg/ml.
Background: In gel filtration, larger molecules generally elute earlier.

The next series concerns the target T1, calnexin (UniProt P27824 21-592).
T1 construct: Specificity control
T1 sequence (looked up): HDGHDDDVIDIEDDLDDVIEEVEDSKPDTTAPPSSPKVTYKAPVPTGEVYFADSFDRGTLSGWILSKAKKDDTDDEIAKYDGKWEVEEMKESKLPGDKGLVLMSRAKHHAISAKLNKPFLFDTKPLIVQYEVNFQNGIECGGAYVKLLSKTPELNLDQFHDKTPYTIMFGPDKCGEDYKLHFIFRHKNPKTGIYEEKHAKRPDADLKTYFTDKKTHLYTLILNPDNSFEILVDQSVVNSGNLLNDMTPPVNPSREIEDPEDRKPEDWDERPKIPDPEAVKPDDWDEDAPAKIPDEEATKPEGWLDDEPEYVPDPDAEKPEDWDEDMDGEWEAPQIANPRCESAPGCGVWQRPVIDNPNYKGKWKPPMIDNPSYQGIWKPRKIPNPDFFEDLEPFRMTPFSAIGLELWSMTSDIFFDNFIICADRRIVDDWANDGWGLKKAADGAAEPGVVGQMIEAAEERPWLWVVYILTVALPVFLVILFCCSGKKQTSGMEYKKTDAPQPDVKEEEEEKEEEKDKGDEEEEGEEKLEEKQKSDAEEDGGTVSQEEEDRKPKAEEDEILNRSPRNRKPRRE
Description: co-immunoprecipitation with anti-GFP from HEK293T lysates in the presence of RNase A; western blot alpha-Calnexin (control for IP specificity). From the text: Western blotting (WB) using the specified antibody, where calnexinservesto control for IP specificity. Results are representative of three independently performed experiments.
Human embryonic kidney (HEK)293T cells were transiently transfected with a mixture of two plasmids: (i) pEGFP-‘RBD’5, which produces monomeric enhanced green fluorescence protein (EGFP)-‘RBD’5 and either pmRFP-SSM-‘RBD’5 or pmRFP-‘RBD’5, which produce monomeric red fluorescence protein (mRFP)—SSM-‘RBD’5 or mRFP-‘RBD’5, respectively; or (ii) pEGFP-SSM-‘RBD’5 and either pmRFP-SSM-‘RBD’5 or pmRFP-‘RBD’5 (FIG. 1D, upper). […] Cell lysates were immunoprecipitated in the presence of RNase A using anti-GFP or, to control for nonspecific immunoprecipitation (IP), mouse(m)IgG.
Background: In western blotting, separated proteins are transferred to a membrane and probed.

The target of another series is T2, mRFP-‘RBD’5 (human, UniProt O95793-2 407-476).
T2 construct: domain: ‘RBD’5; also called monomeric red fluorescence protein-‘RBD’5; product of pmRFP-hSTAU1-‘RBD’5; not shown: N-terminal mRFP (monomeric DsRed derived from pDsRed-Express-C1) with vector linker
T2 sequence (looked up): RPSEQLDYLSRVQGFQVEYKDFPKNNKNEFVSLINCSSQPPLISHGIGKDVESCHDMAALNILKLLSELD
Kind of series: anti-GFP co-IP from HEK293T lysates with RNase A, western blotting.

Series [2] addresses T3, cellular hUPF1 (human, UniProt Q92900-2 1-1118, limits assumed).
T3 construct: Endogenous protein detected by western blotting
T3 sequence (looked up): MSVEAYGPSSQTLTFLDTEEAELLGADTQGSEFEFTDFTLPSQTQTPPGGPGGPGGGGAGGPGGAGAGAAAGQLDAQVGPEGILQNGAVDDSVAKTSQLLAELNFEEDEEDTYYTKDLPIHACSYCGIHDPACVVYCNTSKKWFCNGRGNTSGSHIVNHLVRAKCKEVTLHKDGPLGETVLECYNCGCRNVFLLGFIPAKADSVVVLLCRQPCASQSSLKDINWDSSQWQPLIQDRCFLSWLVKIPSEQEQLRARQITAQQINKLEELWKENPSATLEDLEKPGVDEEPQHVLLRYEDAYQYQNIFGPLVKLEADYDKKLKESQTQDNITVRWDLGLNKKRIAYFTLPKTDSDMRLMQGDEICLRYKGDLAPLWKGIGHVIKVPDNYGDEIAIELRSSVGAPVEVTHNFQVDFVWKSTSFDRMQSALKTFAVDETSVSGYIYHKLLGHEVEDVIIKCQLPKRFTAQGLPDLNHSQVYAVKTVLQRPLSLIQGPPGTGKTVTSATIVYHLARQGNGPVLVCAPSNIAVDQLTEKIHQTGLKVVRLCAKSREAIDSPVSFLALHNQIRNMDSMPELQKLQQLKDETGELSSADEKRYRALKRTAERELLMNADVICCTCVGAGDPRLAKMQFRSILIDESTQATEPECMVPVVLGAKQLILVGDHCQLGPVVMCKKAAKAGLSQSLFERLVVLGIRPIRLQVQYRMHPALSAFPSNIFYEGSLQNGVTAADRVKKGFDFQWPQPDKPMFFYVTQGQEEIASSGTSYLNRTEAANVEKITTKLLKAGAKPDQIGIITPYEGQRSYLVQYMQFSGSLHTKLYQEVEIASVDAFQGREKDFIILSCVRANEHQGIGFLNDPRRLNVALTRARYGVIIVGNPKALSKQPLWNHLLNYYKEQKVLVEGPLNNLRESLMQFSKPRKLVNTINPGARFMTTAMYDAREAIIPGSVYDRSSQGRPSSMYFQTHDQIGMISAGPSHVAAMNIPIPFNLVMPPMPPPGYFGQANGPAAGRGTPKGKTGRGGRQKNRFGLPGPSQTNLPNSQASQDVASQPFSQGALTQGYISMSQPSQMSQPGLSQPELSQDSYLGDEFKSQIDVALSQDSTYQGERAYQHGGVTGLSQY
Described as above.

The target of series [3] is T3, cellular hUPF1. Kind of series: co-immunoprecipitation with anti-GFP from HEK293T lysates in the presence of RNase A; western blot alpha-UPF1.
A further series has as its target T4, mRFP-SSM-‘RBD’5 (human, UniProt D2GVP7 455-564 (Ailuropoda melanoleuca entry), N-terminal mRFP fusion is not carried in the letters.).
T4 construct: Expressed in HEK293T cells; also called monomeric red fluorescence protein-SSM-‘RBD’5; product of pmRFP-hSTAU1-SSM-‘RBD’5; not shown: N-terminal mRFP (monomeric DsRed from a pDsRed-Express-C1 derivative) and the vector-encoded linker
T4 sequence: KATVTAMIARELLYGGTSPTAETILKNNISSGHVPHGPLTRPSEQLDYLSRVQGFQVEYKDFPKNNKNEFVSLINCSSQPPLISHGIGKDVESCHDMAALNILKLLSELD
Description: anti-GFP co-IP from HEK293T lysates with RNase A, western blotting.

Series [4] concerns the target T5, hSTAU1^55-HA3 (human, UniProt O95793-2 1-496).
T5 construct: also called STAU1-HA3
T5 sequence (looked up): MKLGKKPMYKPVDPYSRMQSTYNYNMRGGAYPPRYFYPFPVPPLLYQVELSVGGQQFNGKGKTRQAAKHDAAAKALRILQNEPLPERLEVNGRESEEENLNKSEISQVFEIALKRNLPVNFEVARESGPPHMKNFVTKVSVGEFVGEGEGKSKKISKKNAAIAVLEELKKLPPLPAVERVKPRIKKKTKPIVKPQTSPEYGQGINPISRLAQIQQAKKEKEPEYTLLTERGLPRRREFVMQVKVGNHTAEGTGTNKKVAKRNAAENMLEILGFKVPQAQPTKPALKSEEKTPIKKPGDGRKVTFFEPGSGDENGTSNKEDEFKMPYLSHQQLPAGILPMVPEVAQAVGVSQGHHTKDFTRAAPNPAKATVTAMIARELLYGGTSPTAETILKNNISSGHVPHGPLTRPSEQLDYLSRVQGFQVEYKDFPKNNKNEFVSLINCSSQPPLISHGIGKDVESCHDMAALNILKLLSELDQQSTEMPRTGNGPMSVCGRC
Description: anti-FLAG co-IP from HEK293T lysates with RNase A, quantitated western blot. From the text: (§1) To test this idea, HEK293T cells were transiently transfected with hSTAU1⁵⁵-HA₃ and one of three siRNA-resistant (R) plasmids that produce either hSTAU1^{55(R)}-FLAG, hSTAU1^{55(R)}Δ(C-Term)-FLAG or hSTAU1^{55(R)}Δ(SSM-‘RBD’5)-FLAG, each of which was expressed at the level of cellular hSTAU 1. hSTAU1^{55(R)}Δ(C-Term)-FLAG lacks all amino acids C-terminal to ‘RBD’5 Δ1. Cell lysates were immunoprecipitated in the presence of RNaseA using anti-FLAG or, as a negative control, mIgG.
(§2) The level of hSTAU1⁵⁵-HA₃ or cellular hUPF1 that co-immunoprecipitated with hSTAU1^{55(R)}Δ(SSM-‘RBD’5)—FLAG was only ˜10% the level of, respectively, hSTAU1⁵⁵-HA₃ or cellular hUPF1 that co-immunoprecipitated with hSTAU1^{55(R)}-FLAG or hSTAU1^{55(R)}Δ(C-Term)-FLAG.

Series [5] has as its target T3, cellular hUPF1. Described as above.
Text: as §1, §2

Series [6] concerns the target T5, hSTAU1^55-HA3. Description: anti-HA co-IP (reverse direction) from HEK293T lysates, quantitated western blot.
Text: To test this idea, HEK293T cells were transiently transfected with hSTAU1⁵⁵-HA₃ and one of three siRNA-resistant (R) plasmids that produce either hSTAU1^{55(R)}-FLAG, hSTAU1^{55(R)}Δ(C-Term)-FLAG or hSTAU1^{55(R)}Δ(SSM-‘RBD’5)-FLAG, each of which was expressed at the level of cellular hSTAU 1. hSTAU1^{55(R)}Δ(C-Term)-FLAG lacks all amino acids C-terminal to ‘RBD’5 Δ1. […]
as §2

B1: hSTAU1 ‘RBD’2-RBD3 (amino acids 43-173) (other, human, UniProt O95793-2 43-173, looked up)
chain: PLLYQVELSVGGQQFNGKGKTRQAAKHDAAAKALRILQNEPLPERLEVNGRESEEENLNKSEISQVFEIALKRNLPVNFEVARESGPPHMKNFVTKVSVGEFVGEGEGKSKKISKKNAAIAVLEELKKLPP
notes: range 43-173; Made in E. coli from pGEX-6p-1 and cut with PreScission Protease; also called product of pGEX-6p-1-hSTAU1-‘RBD’2-RBD3
Consider B1, for which the binding result in series [1] was “binds”.

B2: EGFP-‘RBD’5 (other, human, UniProt O95793-2 407-476, looked up)
chain: T2 sequence (looked up)
notes: domain: ‘RBD’5; also called monomeric enhanced green fluorescence protein-‘RBD’5; product of pEGFP-hSTAU1-‘RBD’5; not shown: N-terminal monomeric EGFP from pEGFP-C3 with vector linker
As for B2, the binding result with calnexin, in the series with mRFP-‘RBD’5 and in the series with cellular hUPF1 [2] was “no binding” throughout.

B3: EGFP-SSM-‘RBD’5 (other, human, UniProt O95793-2 367-476, looked up)
chain: T4 sequence
notes: range 367-476; Expressed in HEK293T cells; tested in lysates with RNase A; also called monomeric enhanced green fluorescence protein-SSM-‘RBD’5; product of pEGFP-hSTAU1-SSM-‘RBD’5; not shown: N-terminal monomeric EGFP from pEGFP-C3 (BD Biosciences Clontech) with vector linker
Take B3: the values for the binding result with calnexin, with cellular hUPF1 [3] and in the series with mRFP-SSM-‘RBD’5 were “no binding”, “no binding” and “binds”, respectively.

B4: hSTAU1^55(R)Δ(SSM-‘RBD’5)-FLAG (other, human, UniProt O95793-2 1-363, looked up, not shown: small tags and cut ends)
chain: MKLGKKPMYKPVDPYSRMQSTYNYNMRGGAYPPRYFYPFPVPPLLYQVELSVGGQQFNGKGKTRQAAKHDAAAKALRILQNEPLPERLEVNGRESEEENLNKSEISQVFEIALKRNLPVNFEVARESGPPHMKNFVTKVSVGEFVGEGEGKSKKISKKNAAIAVLEELKKLPPLPAVERVKPRIKKKTKPIVKPQTSPEYGQGINPISRLAQIQQAKKEKEPEYTLLTERGLPRRREFVMQVKVGNHTAEGTGTNKKVAKRNAAENMLEILGFKVPQAQPTKPALKSEEKTPIKKPGDGRKVTFFEPGSGDENGTSNKEDEFKMPYLSHQQLPAGILPMVPEVAQAVGVSQGHHTKDFTRAAP
notes: domain: Δ(SSM-‘RBD’5); End at residue 363 is read from the primer; also called product of pcI-neo-hSTAU1^55(R)Δ(SSM-‘RBD’5)-FLAG
As to B4, the “level of co-immunoprecipitated hSTAU1^55-HA3 relative to that with hSTAU1^55(R)-FLAG or hSTAU1^55(R)Δ(C-Term)-FLAG” value in the series with hSTAU1^55-HA3 [4] was around 10%. In the series with cellular hUPF1 [5], the “level of co-immunoprecipitated cellular hUPF1 relative to that with hSTAU1^55(R)-FLAG or hSTAU1^55(R)Δ(C-Term)-FLAG” value is around 10%. In addition, in the series with hSTAU1^55-HA3 [6], the “level co-immunoprecipitated with hSTAU1^55-HA relative to hSTAU1^55(R)-FLAG or hSTAU1^55(R)Δ(C-Term)-FLAG” value is around 10%.
